Experimental data as given in PMC7889028.

Target: head domain of PPRV ICV'89 strain H protein (residues 156-610) (peste des petits ruminants virus, strain Ivory Coast'89 (ICV'89))
Test: SEC

## head domain of PPRV ICV'89 strain H protein (residues 156-610) (domain or fragment)
  stoichiometry N: 2
